A short description of this data set: soluble on expression in E. coli; label from the status in PepcDB or PDB records.
Turning to “MTSIDVTEIIKSSTSSLYQPARKKSRFDDSASSSSQAGQPKPEDILAALEADQSNYVALDDVQVKKLVIQLDKKMRLNREQRVKNPDDAQKFMESEIELDKAIQEMHSLASQPDLYGSFVEVNGVEILLQLLGHENTDIVCATLSLLRELTDDDVMNEGEDGAAELIESLVSGSIITTLLACVERLDESVKDEADGVHNALGVVDNMIGFRDDITEECVKHGFTVWLLKRCFQKGAFDANKMYASELLSVILQTSDTAKAKLTEKIDGIDILLRTIAVYKKNDPANVDEREYMENLFNSLCAALMHPANRKKFLDGEGLQLMNLMLREKKQARQSALKVLNHATSGDEGIENCNKLVEMLGLRTIFPLFMRTPSKTKRKDTTPDEHEEHVCTILSSLLAACSENHRQRIVQKFVEHEHEKVDRAVELFLKYKEKVQRFELKKKRQSQEAGTSEDDDPDRAYLDKLDNGLYTLQRLTLILGEVAVGVESARLREEKLFQMKMSQNRLDLMLCPIIQEYSDNLGDDANIEQERVLVMLSKIEDFYK”, the “soluble on expression in E. coli” value is on record as “not soluble”.

Take “MTSLSSPSPIQHTTSSFLNNFMPTPSLINLQQGYRNPDLGSQDLARLDASRHESIQKVSRKLSTYEEEKNLIENELEEIERTGARLLSIVEQKDNFLASRIRRFMEKSKELVGIETLLRLQLNKHNERIKDGLIDISAARGEESYLQKRFKDTDFLRKISARREIDYDKELSEIFTDDQFHRWVMFKKATLQLLQTESSVSYYIRESNAKLDALHLAPRGTSA”: the “soluble on expression in E. coli” value is listed as “not soluble”.

Take “MTSPASCSPPNEKRTGSPFPPESRSLPSTMEMTMNTIFRPAPHPLPDAPFYTPLGNECVLFESAWVRQLPLLLKGPTGCGKTRFVSHMAAKLGLPLSTISCHDDLAAADLTGRYLLKGGETVWMDGPLTRSVRQGGICYLDEIVEARKDVAVVLHPLTDDRRILPLERTGEVLEAPSGFMLVVSYNPGYQNLLKSLKPSTRQRFVAIEFDFLPKEQEIAVVSHESGLDARDVEPLVDLAHRLRGLKGHDLEEGVSTRLLVYCASLIDTGLPARQAVRATMIEPLTDEPDVKAALHEVADAIIRLEHHHHHH”: the “soluble on expression in E. coli” value was “not soluble”.

On to “MTSPYATIVDAREFNAPMFAEKIDRALRAGEKDAVVNVITSISNAQRQQLREPYKLKYGKDIIQALDKKFSGDLEKAIFALMETPLDYDVKQLKAAMKGLGTDEAVLIEILCSRTVDQLRAIRVTYEKEYGKALEADIAGDTSGEFRDLLVSLVTGSKDGSHDTNDAQAKDDAVRLFADGKAKLAKKDGTHFLHILATQNQYQLRKVFAYFQELAGGSIEKSIEKEFSGDLQKSYLTIVRAASDKQKFFAQQLHASMKGLGTRDNDLIRVIVTRSEVDLELIKAEFQELYSKSLADTVKGDTSGAYRDALLSIINGNHATAH”, for which the “soluble on expression in E. coli” value was “not soluble”.

For the sequence “MTSRMQPKSGVYSVSKADFTKIFEDVPKVPITSAVDLRNKFDAVRIILSNSSEDWNKRQTQLKTVRSLVIHGEKVVDRPTMIAHLVQLLGCFELAVKDLRSQVLREAAITCSFIVSKYGIETHSIGEDILVPAMSQVAVSTKIMATSASTLTEFIVEYVQTRQVFTILSSFSTSKDKSQRRQLAALLEIVISKWSDRIKKQIMRQICELIKSAINDADSETRAAGRRAFAKLDEMHSEEADALYLELDHSKQKMLRGGDAASSWASVNSEKGSIPIRSKLSAGSKAHMNISAISEKKEGIKKLLPIVADTSLNPIEIKNIGNCLNRLLSDASNTMVLEIYSIFVRTHSSRLSEWLRLALAKLFARKAAETLPNTKKQIGHTLNVILECFNAHHQLVTVCELMCDPIHLMVPKARVVLLEYLTSLLDEYTEPGASINAKELKTAIRKMLTWASDPRLSILLTPHVEKAICSMFCVNVADFSALISDLDSEQKNWIHQTLQRNGLENGISSNNIATNSGATASRETSNTSFQKESTSFGLPEFGARKGGTGVNLGSLNISNNLALSRLEEQSTSRLMEKVNLNSTVTLPPDTLEKIQNVQDLLQKMRSSENADEQESAISSIYMMICDGGFGVWEQCYAKLLLNLFEILSKSRSENNKKMCLRILGKMCTAQAAKLFDSTEMAVCKVLDAAVNTNDATTALAVEDCLRTLATHLPLSNIINIAKVILNQEPIDDERASLVLKMVTRLFEELPAEELNNIVDDITPTIIKAYQSTSSTVRKTVVYCLVAMVNRVGEQRMTPHFTKLPKAMTNLIQVYVNRAISTSLPRL”, the “soluble on expression in E. coli” value is on record as “not soluble”.

Regarding “MTTFSHSSTTPSVSVTTASGNNQSQLVATPVPDEQRISFWPQHFGLIPQWVTLEPRVFGWMDRLCEDYCGGIWNLYTLNNGGAFIAPEPDEDDGETWILFNAMNGNRAEMSPEAAGIAACLMTYSHHACRTECYAMTVHYYRLRDYALQHPECSAIMRIID”, the “soluble on expression in E. coli” value was “not soluble”.

As to “MTTIDLNCDLGESFGAYKMGNDDEILPFVSSINVACGFHAGDPSIMRQTVEKALEHNVAIGAHPGFPDLIGFGRRNMNVSASEVYDYVLYQTGALDAFVKAAGGKMQHVKPHGALYNMAASNPEIADAIAKAIYHINPSLLLYGLANSEAFIQAAEKYKVTLVQEAFADRTYKQDGTLTSRTEENALIKDEDEAIKQVLQMVKEGYVNSVNGEKVAVQAQTICLHGDGEKAVQFAERIYRTFKLNGISICAPKLEHHHHHH”, the “soluble on expression in E. coli” value is on record as “soluble”.

Regarding “MTTKKFRMEDVGLSKLKVEKNPKDVKQTEWKSVLPNEVYRVARESGTETPHTGGFNDHFEKGRYVCLCCGSELFNSDAKFWAGCGWPAFSESVGQDANIVRIVDRSHGMHRTEVRCKTCDAHLGHVFNDGPKETTGERYCINSVCMAFEKKD”, the “soluble on expression in E. coli” value is “soluble”.

Take “MTTKNTLQPTEAAYIAGFLDGDGSIYAKLIPRPDYKDIKYQVSLAISFIQRKDKFPYLQDIYDQLGKRGNLRKDRGDGIADYTIIGSTHLSIILPDLVPYLRIKKKQANRILHIINLYPQAQKNPSKFLDLVKIVDDVQNLNKRADELKSTNYDRLLEEFLKAGKIESSPTGSGSGSKHPTLTLPTTTSQENLPNGSGSGSGTMTTKNTLQPTEAAYIAGFLDGDGSIYAKLIPRPDYKDIKYQVSLAISFIQRKDKFPYLQDIYDQLGKRGNLRKDRGDGIADYTIIGSTHLSIILPDLVPYLRIKKKQANRILHIINLYPQAQKNPSKFLDLVKIVDDVQNLNKRADELKSTNYDRLLEEFLKAGKIESSP”: the “soluble on expression in E. coli” value is “soluble”.

In the case of “MTTLPPPATELSADEARRLALRAQGFLGAPDRRAGVRGVLRHLGAVQLDTISVLARSHELIPYARLGAVGRRTVDDAYWTDTHAFEYWSHAACILPIEEWPHFAFRRRAYRNRPHWNHHLPEGDYDRVVKQLREEGPLTATDLGGAKRTSEWWDWSGTKVAVERALMYGEVVCVERRGWKRVYDLAERAVPAALLHDDLDDTECLRRLVRLAGQSLGVGTRADIADYHRLKAEQVDAVIADSGLVPVTVAGWGRPAWADPAALETVPRGRHRTTLLSPFDSLIWERARTERIFGFTHRLEAYVPRQKRVHGYFAMPVLAGGRLVGRVDPAREGRTLVAKQVTLDGPKAAPAVAQALVEAAGWVDCTNVRVERVETPDLREPLARELARLLDLEHHHHHH”, the “soluble on expression in E. coli” value was “not soluble”.

With “MTTMSGYTRSQRPRQAILGQLPRIHRADGSPIRVLLVDDEPALTNLVKMALHYEGWDVEVAHDGQEAIAKFDKVGPDVLVLDIMLPDVDGLEILRRVRESDVYTPTLFLTARDSVMDRVTGLTSGADDYMTKPFSLEELVARLRGLLRRSSHLERPADEALRVGDLTLDGASREVTRDGTPISLSSTEFELLRFLMRNPRRALSRTEILDRVWNYDFAGRTSIVDLYISYLRKKIDSDREPMIHTVRGIGYMLRPPE”, the “soluble on expression in E. coli” value was “not soluble”.

Consider “MTTPSPQEISTVTLNSLSKEERKKAILALQTKKNEIKLVIDEHQKKLAEFRQSIPDGCCEMFENEKKIRLKHSSTAELLPHLQKVGSSSVDKEKMINNIRQRVEVQVADQETFKSIEERNELLRRENENLKKEVNTVAAELLQEFESYE”, for which the “soluble on expression in E. coli” value is “not soluble”.

In the case of “MTTRDLTAAYFQQTISANSNVLVYFWAPLCAPCDLFTPTYEASSRKHFDVVHGKVNIETEKDLASIAGVKLLPTLMAFKKGKLVFKQAGIANPAIMDNLVQQLRAYTFKSPAGEGIGPGTKTSS”, the “soluble on expression in E. coli” value is listed as “soluble”.

As to “MTTRRLALFDLDHTLLPLDSDYQWADFLARTGRAGDPAEARRRNDDLMERYNRGELTAEQAAEFMLGLLAAHSPVELAAWHEEFMRDVIRPSLTVQAVDVVRGHLAAGDLCALVTATNSFVTAPIARAFGVQHLIATDPEYRDGRYTGRIEGTPSFREGKVVRVNQWLAGMGLALGDFAESYFYSDSVNDVPLLEAVTRPIAANPSPGLREIAQARGWQVIDLFDHLEDAKS”, the “soluble on expression in E. coli” value is “soluble”.

The values are drawn from the DeepSol protein solubility set.
